Data set [1] has as its target ΔVP1, Murine polyomavirus VP1 with the putative nuclear localization signal deleted (Murine polyomavirus) (UniProt P03090). The data set is described as follows: SEC-MALS. In general terms: SEC sorts molecules by how far they enter the pores of the column.
Data set [2] concerns the molecule itself. Put plainly: SEC-MALS.

The values that follow come from paper PMC8689640 (ACS Synthetic Biology, 2021).

Broadly, the stoichiometry N is a count of units in the complex or per binding partner.

Turning to “ΔVP1, Murine polyomavirus VP1 with the putative nuclear localization signal deleted (from UniProt P03090 1-383) (natural protein)”, the stoichiometry N in data set [1] was 72 pentamers.

B1: wild-type Murine polyomavirus VP1 (natural protein, UniProt P03090 1-383, looked up)
chain: MAPKRKSGVSKCETKCTKACPRPAPVPKLLIKGGMEVLDLVTGPDSVTEIEAFLNPRMGQPPTPESLTEGGQYYGWSRGINLATSDTWIPRNNTLPTWSMAKSSFPCLNEDLTCDTLQMWEAVSVKTEVVGSGSLLDVHGFNKTHRFSKHKGNSTPVEGSQYHVFAGGGEPLDLQGLVTDARTKYKEEGVVTIKTITKKDMVNKDQVLNPISKAKLDKDGMYPVEIWHPDPAKNENTRYFGNYTGGTTAPPVLQFTNTLTTVLLDENGVGPLCKGEGLYLSCVDIMGWRVTRNYVSSLEKGFPRYFKITLRKRWVKNPYPMASLISSLFNNMLPQVQGQPMEGENTQVEEVRVYDGTEPVPGDPDMTRYVDRFGKTKTVFPGN
For B1, in data set [2], the “stoichiometry N” value is approximately 72 pentamers.
